The test system of assay [1] is hHBV. Description: Immunoprecipitation of hHBV by Siglec ECD.Fc fusion proteins. The format is binding, hepatitis B virus. The settings on record: Western blot with anti-HBs. As to the method:
HBV ([…]) was incubated with recombinant Siglec-3/-7/-9 ECD.Fc fusion proteins, respectively, for 16 hours at 4° C., followed by incubation with Sepharose-conjugated Protein A beads for immunoprecipitation. The samples were fractionated on 12% SDS-PAGE before blotting to PVDF membrane and incubated in blocking buffer (0.05% Tween 20 in TBS containing 5% BSA) at 4° C. overnight. Blots were incubated with […] polyclonal goat-anti-HBs Ab for 1 hour at room temperature, followed by incubation with Streptavidin-HRP (1:10000 dilution) for another 1 hour at room temperature, and were visualized by ECL.
For orientation: In western blotting, separated proteins are transferred to a membrane and probed.

In assay [2] the test system is hHBV. As to the kind of experiment: Bio-layer interferometry: immobilized Fc-lectin and hHBV. The settings on record: hHBV, BLI, same condition as Siglec-3. The format is binding, hepatitis B virus. The text has this:
HBV was purified from blood samples of chronic hepatitis B (CHB) patients and HBV-transgenic mice, respectively. The protocol for HBV was purified by conventional method. HBV viral load was determinate by RT-PCR according to a standard HBV plasmid. HBsAg level was quantified by the HBsAg ELISA kit.
Sialidase S and sialidase C were used to remove sialoglycan from HBV or sialoglycans, respectively. Sialidase S releases only α(2-3)-linked Neu5Ac, while Sialidase C release both α(2-3) and α(2-6)-linked Neu5Ac. The sialidase-treated substrates were used for HBV-Siglec-3 binding assay and competition assay.
The interaction between human Siglec.Fc fusion protein and HBV was determined by the Bio-layer interferometry. […] The valence between HBV and human Siglec-3 was determined, which correlates the strength of multivalent association with that of monovalent association as shown in the following: • KA, surf=F (S×10^−2)^n−1×(KA, mono)^n, where KA, surf is thereciprocal of KD (HBV and Siglec-3), KA, mono is the reciprocal of KD (Biantennary a2-6 linked sialylglycopeptide and Siglec-3); n is the number of valency number; F is the statistic factor in the system and S is equal to 40(Å), which is estimated according to crystal structure of Siglec-3 published on RCSB protein data bank (Number: 5J0B). […]
A general note: BLI is a label-free optical method that tracks binding on a fibre tip over time.

B1: Siglec-7: recombinant human Siglec-7 extracellular domain (ECD).Fc fusion protein (protein)
chain: QKSNRKDYSLTMQSSVTVQEGMCVHVRCSFSYPVDSQTDSDPVHGYWFRAGNDISWKAPVATNNPAWAVQEETRDRFHLLGDPQTKNCTLSIRDARMSDAGRYFFRMEKGNIKWNYKYDQLSVNVTALTHRPNILIPGTLESGCFQNLTCSVPWACEQGTPPMISWMGTSVSPLHPSTTRSSVLTLIPQPQHHGTSLTCQVTLPGAGVTTNRTIQLNVSYPPQNLTVTVFQGEGTASTALGNSSSLSVLEGQSLRLVCAVDSNPPARLSWTWRSLTLYPSQPSNPLVLELQVHLGDEGEFTCRAQNSLGSQHVSLNLSLQQEYTGKMRPVSGVLLGAVGGAGATALVFLSFCVIFIVVRSCRKKSARPAADVGDIGMKDANTIRGSASQGNLTESWADDNPRHHGLAAHSSGEEREIQYAPLSFHKGEPQDLSGQEATNNEYSEIKIPK
For the molecule B1, the “pull down of hHBV HBsAg (immunoprecipitation)” value in the assay with hHBV [1] is given as “cannot pull down”. Moreover, in the assay on hHBV [2], the “binding to hHBV” value is recorded as “did not bind”.

The values above are taken from patent US12103969B2, “Anti-Siglec antibody, pharmaceutical composition comprising the same, and uses thereof” (Academia Sinica, priority 2018, dated 2024).
